Measurements from the supplement of paper PMC10065799, “High-throughput profiling of sequence recognition by tyrosine kinases and SH2 domains using bacterial peptide display” (eLife, 2023).

Tests used:
[1] = test system: AncSZ; experiment: phosphorylation enrichment, bacterial display (enrichment ratio); higher = better substrate or ligand; peptides without Tyr show the background
[2] = biological target: EPHB1 (UniProt P54762); experiment: as above
[3] = biological target: EPHB2 (UniProt P29323); experiment: as above
[4] = biological target: FGFR1 (UniProt P11362); experiment: as above
Chain of FGFR1 (P11362 whole entry, looked up): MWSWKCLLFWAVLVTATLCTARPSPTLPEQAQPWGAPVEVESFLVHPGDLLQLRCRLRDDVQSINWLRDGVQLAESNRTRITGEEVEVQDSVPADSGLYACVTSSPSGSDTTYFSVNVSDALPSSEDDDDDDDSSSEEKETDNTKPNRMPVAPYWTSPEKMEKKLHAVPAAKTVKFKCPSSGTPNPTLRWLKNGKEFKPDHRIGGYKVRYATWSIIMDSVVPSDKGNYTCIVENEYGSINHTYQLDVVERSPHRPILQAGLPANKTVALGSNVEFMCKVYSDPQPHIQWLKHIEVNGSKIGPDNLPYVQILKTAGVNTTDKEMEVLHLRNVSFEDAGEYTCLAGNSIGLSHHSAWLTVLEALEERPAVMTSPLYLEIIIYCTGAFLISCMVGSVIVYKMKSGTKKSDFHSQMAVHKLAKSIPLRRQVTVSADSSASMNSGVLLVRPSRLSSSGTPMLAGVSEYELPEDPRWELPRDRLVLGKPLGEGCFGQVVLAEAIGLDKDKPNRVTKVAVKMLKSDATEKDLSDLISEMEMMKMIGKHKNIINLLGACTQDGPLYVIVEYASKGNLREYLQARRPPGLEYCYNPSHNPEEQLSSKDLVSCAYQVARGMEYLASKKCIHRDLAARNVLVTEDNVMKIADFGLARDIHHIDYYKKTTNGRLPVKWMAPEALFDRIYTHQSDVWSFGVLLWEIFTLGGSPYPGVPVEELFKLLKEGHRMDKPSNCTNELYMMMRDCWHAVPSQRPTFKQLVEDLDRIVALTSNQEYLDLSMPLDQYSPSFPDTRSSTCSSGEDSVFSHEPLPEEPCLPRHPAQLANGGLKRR

[5] = biological target: FGFR3 (UniProt P22607); experiment: as above
Chain of FGFR3 (P22607 whole entry, looked up): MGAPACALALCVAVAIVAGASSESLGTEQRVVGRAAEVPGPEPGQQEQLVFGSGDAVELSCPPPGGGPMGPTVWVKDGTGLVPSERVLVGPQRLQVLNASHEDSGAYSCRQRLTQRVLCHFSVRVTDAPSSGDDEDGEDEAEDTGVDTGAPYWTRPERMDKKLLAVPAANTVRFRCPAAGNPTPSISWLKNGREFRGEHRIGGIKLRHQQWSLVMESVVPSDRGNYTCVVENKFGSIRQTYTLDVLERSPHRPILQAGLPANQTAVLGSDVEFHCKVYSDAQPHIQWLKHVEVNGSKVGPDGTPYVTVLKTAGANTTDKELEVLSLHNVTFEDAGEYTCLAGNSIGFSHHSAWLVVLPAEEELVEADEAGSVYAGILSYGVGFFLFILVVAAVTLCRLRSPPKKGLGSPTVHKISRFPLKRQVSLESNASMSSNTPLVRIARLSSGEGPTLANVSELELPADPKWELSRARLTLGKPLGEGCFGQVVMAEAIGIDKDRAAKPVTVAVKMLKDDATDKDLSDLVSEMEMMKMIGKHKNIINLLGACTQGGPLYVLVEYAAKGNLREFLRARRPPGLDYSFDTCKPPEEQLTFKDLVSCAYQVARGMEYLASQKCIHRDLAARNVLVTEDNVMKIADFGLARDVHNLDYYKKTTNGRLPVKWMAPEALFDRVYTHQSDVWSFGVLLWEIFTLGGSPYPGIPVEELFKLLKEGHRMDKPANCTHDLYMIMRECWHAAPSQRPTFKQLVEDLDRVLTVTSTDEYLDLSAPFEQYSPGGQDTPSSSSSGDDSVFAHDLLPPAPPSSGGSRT

[6] = test system: Fer (mouse); experiment: as above
[7] = biological target: Fes (UniProt P07332); experiment: as above
Chain of Fes (P07332 whole entry, looked up): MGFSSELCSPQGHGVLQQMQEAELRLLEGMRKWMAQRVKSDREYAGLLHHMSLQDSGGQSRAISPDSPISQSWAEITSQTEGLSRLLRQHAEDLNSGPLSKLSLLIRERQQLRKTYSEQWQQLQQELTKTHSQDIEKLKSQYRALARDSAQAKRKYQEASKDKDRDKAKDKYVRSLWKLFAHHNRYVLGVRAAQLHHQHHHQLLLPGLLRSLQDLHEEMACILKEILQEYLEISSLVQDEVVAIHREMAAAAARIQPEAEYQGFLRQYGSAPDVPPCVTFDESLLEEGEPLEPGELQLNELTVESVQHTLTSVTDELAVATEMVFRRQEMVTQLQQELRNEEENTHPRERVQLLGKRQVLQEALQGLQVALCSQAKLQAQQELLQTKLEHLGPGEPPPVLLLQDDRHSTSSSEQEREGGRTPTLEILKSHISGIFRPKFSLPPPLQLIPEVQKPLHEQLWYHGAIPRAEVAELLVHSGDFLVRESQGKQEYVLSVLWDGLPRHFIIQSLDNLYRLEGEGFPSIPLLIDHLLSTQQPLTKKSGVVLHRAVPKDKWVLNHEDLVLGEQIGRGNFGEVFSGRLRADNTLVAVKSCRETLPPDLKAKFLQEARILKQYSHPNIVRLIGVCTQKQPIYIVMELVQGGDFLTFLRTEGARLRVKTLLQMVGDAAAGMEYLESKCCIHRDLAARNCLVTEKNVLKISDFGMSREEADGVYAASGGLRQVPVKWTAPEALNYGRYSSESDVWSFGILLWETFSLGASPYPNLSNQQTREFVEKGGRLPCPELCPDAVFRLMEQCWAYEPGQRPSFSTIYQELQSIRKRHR

[8] = biological target: Fyn (UniProt P06241); experiment: as above
Chain of Fyn (P06241 whole entry, looked up): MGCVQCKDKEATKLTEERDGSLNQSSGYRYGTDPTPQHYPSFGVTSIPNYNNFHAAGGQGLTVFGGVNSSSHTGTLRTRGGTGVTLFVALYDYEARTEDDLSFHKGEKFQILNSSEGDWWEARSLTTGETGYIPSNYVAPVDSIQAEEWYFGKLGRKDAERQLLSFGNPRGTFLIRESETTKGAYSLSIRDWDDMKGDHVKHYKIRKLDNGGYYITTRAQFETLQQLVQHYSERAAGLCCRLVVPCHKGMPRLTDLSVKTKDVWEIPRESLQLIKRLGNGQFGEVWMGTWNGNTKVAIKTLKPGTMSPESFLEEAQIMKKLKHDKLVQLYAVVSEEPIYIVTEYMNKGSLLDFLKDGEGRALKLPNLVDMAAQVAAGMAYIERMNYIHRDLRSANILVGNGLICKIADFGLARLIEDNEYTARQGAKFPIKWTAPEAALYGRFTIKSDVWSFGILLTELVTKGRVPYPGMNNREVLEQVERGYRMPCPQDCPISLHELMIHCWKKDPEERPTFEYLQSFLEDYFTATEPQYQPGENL

[9] = biological target: Hck (UniProt P08631); experiment: as above
Chain of Hck (P08631 whole entry, looked up): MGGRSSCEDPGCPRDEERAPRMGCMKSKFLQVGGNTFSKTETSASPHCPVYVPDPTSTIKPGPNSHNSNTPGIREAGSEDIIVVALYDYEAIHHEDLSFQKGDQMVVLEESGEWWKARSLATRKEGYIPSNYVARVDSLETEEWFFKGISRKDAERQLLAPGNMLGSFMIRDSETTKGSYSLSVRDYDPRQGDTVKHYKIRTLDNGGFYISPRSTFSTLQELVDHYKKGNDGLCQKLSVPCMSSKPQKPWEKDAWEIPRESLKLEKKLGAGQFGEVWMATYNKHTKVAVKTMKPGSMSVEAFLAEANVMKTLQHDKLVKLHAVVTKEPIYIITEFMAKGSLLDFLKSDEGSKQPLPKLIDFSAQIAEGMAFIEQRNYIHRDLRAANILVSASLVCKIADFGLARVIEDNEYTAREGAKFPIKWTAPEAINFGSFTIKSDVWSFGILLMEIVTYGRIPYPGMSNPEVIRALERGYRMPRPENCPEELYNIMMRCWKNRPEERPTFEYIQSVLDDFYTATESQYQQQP

[10] = biological target: Jak2 (UniProt O60674); experiment: as above
[11] = biological target: MERTK (UniProt Q12866); experiment: as above
Chain of MERTK (Q12866 whole entry, looked up): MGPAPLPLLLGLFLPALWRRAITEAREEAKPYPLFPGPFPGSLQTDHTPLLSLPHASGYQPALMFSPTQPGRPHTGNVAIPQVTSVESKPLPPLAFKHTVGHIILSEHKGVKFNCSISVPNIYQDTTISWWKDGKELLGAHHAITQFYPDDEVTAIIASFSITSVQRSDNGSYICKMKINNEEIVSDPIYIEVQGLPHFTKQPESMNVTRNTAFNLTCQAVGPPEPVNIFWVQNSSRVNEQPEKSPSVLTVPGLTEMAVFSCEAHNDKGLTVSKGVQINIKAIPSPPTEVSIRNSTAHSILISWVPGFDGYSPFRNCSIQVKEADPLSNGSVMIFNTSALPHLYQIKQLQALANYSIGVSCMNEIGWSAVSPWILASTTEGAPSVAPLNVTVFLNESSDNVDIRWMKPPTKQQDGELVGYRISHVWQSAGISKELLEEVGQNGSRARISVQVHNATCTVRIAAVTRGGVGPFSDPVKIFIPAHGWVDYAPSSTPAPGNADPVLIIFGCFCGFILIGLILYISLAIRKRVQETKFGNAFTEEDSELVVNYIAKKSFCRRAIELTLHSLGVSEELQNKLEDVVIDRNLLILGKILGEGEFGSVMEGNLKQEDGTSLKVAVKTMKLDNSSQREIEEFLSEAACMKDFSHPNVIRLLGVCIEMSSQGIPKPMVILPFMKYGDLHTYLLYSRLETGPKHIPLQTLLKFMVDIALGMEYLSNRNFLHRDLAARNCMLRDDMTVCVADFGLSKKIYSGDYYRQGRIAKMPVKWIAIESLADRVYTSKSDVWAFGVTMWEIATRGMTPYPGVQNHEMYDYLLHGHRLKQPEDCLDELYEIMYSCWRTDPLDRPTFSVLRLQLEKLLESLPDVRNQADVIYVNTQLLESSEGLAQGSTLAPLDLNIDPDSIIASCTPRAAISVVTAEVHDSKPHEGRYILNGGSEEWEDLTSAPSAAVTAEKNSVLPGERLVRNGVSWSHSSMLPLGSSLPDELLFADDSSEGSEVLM

[12] = test system: c-Abl (mouse); experiment: as above
[13] = test system: c-Src; experiment: as above
[14] = biological target: Grb2 SH2 (UniProt P62993); experiment: SH2 binding enrichment of the phosphorylated peptide, bacterial display (enrichment ratio); higher = better substrate or ligand; peptides without Tyr show the background
Chain of Grb2 SH2 (P62993 whole entry, looked up): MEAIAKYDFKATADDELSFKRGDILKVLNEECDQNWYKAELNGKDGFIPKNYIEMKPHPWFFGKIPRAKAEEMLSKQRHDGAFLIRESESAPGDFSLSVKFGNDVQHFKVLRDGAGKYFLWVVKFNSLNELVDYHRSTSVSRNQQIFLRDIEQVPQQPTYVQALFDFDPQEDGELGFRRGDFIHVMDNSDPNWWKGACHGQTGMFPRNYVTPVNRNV

[15] = biological target: SHP2-C SH2; experiment: as above
[16] = biological target: c-Src SH2; experiment: as above
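Wherever SH2 binding enrichment of the phosphorylated peptide, bacterial display is given: peptide library displayed on the E. coli surface as eCPX fusions, selected cells deep-sequenced, score is each peptide's frequency after selection divided by its frequency in the input.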
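Wherever phosphorylation enrichment, bacterial display is given: 11-residue human phosphosite peptides and single-mutation variants displayed on the E. coli surface, counted by deep sequencing, each peptide's frequency after selection divided by its frequency in the unselected input library; frequency after pTyr selection over input frequency; kinase dosed for 20-30% of maximal phosphorylation in three min.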

Row | Sequence | phosphorylation enrichment [1] | phosphorylation enrichment [2] | phosphorylation enrichment [3] | phosphorylation enrichment [4] | phosphorylation enrichment [5] | phosphorylation enrichment [6] | phosphorylation enrichment [7] | phosphorylation enrichment [8] | phosphorylation enrichment [9] | phosphorylation enrichment [10] | phosphorylation enrichment [11] | phosphorylation enrichment [12] | phosphorylation enrichment [13] | SH2 binding enrichment [14] | SH2 binding enrichment [15] | SH2 binding enrichment [16]
1 | GDYLSYREFHS [ERBIN_Y1107] | 2.1 | 16.8 | 23.1 | 4.66 | 3.56 | 0.414 | 0.903 | 2.8 | 2.42 | 1.54 | 0.489 | 19 | 2.48 | 0.972 | 0.539 | 0.407
2 | GDYYRYLAEVA [YWHAG_Y133] | 2.37 | 3.59 | 3.79 | 11.5 | 9.01 | 0.476 | 1.01 | 1.39 | 1.31 | 5.81 | 2.63 | 1.09 | 1.93 | 1.02 | 0.905 | 0.569
3 | GGCQEYTGAPF [NAXD_Y85_YF] | 1.17 | 0.541 | 0.618 | 0.526 | 0.8 | 0.587 | 1.14 | 0.464 | 0.506 | 0.817 | 0.456 | 0.636 | 0.528 | 0.817 | 0.576 | 0.508
4 | GGDAVYTNGAI [RFX2_Y82] | 0.654 | 0.425 | 0.486 | 0.484 | 0.532 | 0.5 | 0.638 | 1.3 | 1.34 | 0.494 | 0.359 | 0.443 | 1.09 | 0.995 | 0.594 | 0.491
5 | GGGFGYQKTKK [DDX18_Y643] | 0.328 | 0.252 | 0.318 | 0.371 | 0.422 | 0.343 | 0.52 | 0.315 | 0.379 | 0.814 | 0.308 | 0.556 | 0.3 | 1.05 | 0.808 | 0.712
6 | GGQDVYGDFGG [Probound] | 0.748 | 0.718 | 0.883 | 0.527 | 0.573 | 0.498 | 0.837 | 8.36 | 5.41 | 0.905 | 0.562 | 0.939 | 5.08 | 0.803 | 0.79 | 0.509
7 | GGSSPYSRRLA [CDK13_Y351_P356A] | 0.626 | 0.363 | 0.326 | 0.356 | 0.395 | 0.344 | 0.565 | 0.426 | 0.425 | 0.512 | 0.443 | 0.567 | 0.468 | 0.875 | 1.11 | 0.617
8 | GGTPLYMDRQG [AGXT_Y194] | 0.606 | 0.465 | 0.501 | 0.401 | 0.47 | 0.431 | 0.614 | 0.516 | 1.26 | 0.513 | 0.409 | 0.499 | 0.505 | 0.76 | 0.685 | 0.448
9 | GGTTMYPGIAD [ACTC1_Y308] | 0.854 | 0.424 | 0.419 | 0.451 | 0.576 | 0.408 | 0.722 | 0.493 | 0.437 | 0.766 | 0.418 | 0.561 | 0.484 | 0.871 | 0.783 | 0.393
10 | GHGRFYMKEAI [PGM1_Y66_D62H] | 0.684 | 0.342 | 0.418 | 0.384 | 0.59 | 0.405 | 0.754 | 0.407 | 0.404 | 0.662 | 0.305 | 0.536 | 0.36 | 1.32 | 1.21 | 1.1
11 | GHMYAYDWISI [BEST1_Y227_L224M] | 2.18 | 3.06 | 2.54 | 8.74 | 6.08 | 14.7 | 4.88 | 1.89 | 2.87 | 0.798 | 7.82 | 0.739 | 1.82 | 1.6 | 1.82 | 2.41
12 | GHPYAYDWISI [BEST1_Y227_L224P] | 1.47 | 1.65 | 1.07 | 10.1 | 6.75 | 17.5 | 2.26 | 0.929 | 1.62 | 0.794 | 8.66 | 0.661 | 1.55 | 1.1 | 1.07 | 4.11
13 | GIVEDYRPPFF [ACVRL1_Y421_YF] | 0.825 | 0.497 | 0.498 | 0.468 | 0.667 | 0.443 | 0.899 | 0.464 | 0.413 | 0.814 | 0.417 | 0.701 | 0.42 | 0.818 | 0.616 | 0.521
14 | GIVEDYRPPVY [ACVRL1_Y421_F425V] | 0.817 | 0.524 | 0.547 | 0.458 | 0.53 | 0.479 | 0.953 | 0.406 | 0.505 | 0.77 | 0.403 | 0.539 | 0.437 | 0.825 | 0.524 | 0.47
15 | GIVKAYYVRAR [AIPL1_Y267] | 1.03 | 0.398 | 0.47 | 0.461 | 0.548 | 0.407 | 0.771 | 0.394 | 0.396 | 0.706 | 0.465 | 0.558 | 0.415 | 0.858 | 0.502 | 0.464
16 | GKFFQYDTWKQ [IGF2_Y116] | 0.766 | 0.498 | 0.564 | 0.407 | 0.514 | 0.468 | 0.852 | 0.43 | 0.826 | 0.601 | 0.485 | 0.582 | 0.567 | 0.906 | 0.755 | 0.742
17 | GKFFQYDTWNQ [IGF2_Y116_K120N] | 1.06 | 0.545 | 0.7 | 0.643 | 0.639 | 0.533 | 1.07 | 0.51 | 0.741 | 0.933 | 0.588 | 0.78 | 0.872 | 0.746 | 0.718 | 0.761

Row | Sequence | phosphorylation enrichment [1] | phosphorylation enrichment [2] | phosphorylation enrichment [3] | phosphorylation enrichment [4] | phosphorylation enrichment [5] | phosphorylation enrichment [6] | phosphorylation enrichment [7] | phosphorylation enrichment [8] | phosphorylation enrichment [9] | phosphorylation enrichment [10] | phosphorylation enrichment [11] | phosphorylation enrichment [12] | phosphorylation enrichment [13] | SH2 binding enrichment [14] | SH2 binding enrichment [15] | SH2 binding enrichment [16]
18 | GKTQQYDCKWF [BCR_Y751_YF] | 0.848 | 0.596 | 0.563 | 0.472 | 0.63 | 0.463 | 1.07 | 0.432 | 0.425 | 0.927 | 0.451 | 0.748 | 0.43 | 0.826 | 0.624 | 0.466
19 | GLRFGYGVLGG [KRTAP20-2_Y15_YF] | 0.742 | 0.413 | 0.488 | 0.358 | 0.574 | 0.387 | 0.782 | 0.548 | 0.376 | 0.562 | 0.311 | 0.519 | 0.434 | 0.674 | 0.893 | 0.493
20 | GNHISYFQSDG [CACNA1C_Y1757_V1755I_YF] | 0.742 | 0.552 | 0.44 | 0.483 | 0.496 | 0.39 | 0.918 | 0.418 | 0.392 | 0.566 | 0.376 | 0.511 | 0.395 | 0.927 | 0.806 | 0.401
21 | GNKENYGLPQP [BUB1_Y538] | 0.634 | 0.489 | 0.533 | 0.372 | 0.609 | 0.353 | 0.69 | 0.321 | 0.342 | 0.532 | 0.341 | 1.26 | 0.392 | 0.575 | 0.677 | 0.375
22 | GNLLIYTELGK [HGD_Y166_F169L] | 1.46 | 3.98 | 2.57 | 1.29 | 1.19 | 0.986 | 1.43 | 5.68 | 5.3 | 1.21 | 4.86 | 2.29 | 4.74 | 0.756 | 0.478 | 0.381
23 | GPKFGYDEIDN [ACOX1_Y232] | 0.993 | 0.44 | 0.688 | 0.42 | 0.527 | 0.344 | 0.874 | 0.406 | 0.359 | 0.765 | 0.381 | 0.531 | 0.453 | 0.845 | 0.658 | 16.7
24 | GQKVAYGGTGD [ALDH3A1_Y305] | 0.582 | 0.268 | 0.342 | 0.354 | 0.416 | 0.384 | 0.558 | 0.349 | 0.387 | 0.417 | 0.412 | 0.569 | 0.371 | 0.756 | 0.608 | 0.48
25 | GQSKGYRPKLF [SIPA1L3_Y1376_YF] | 0.433 | 0.319 | 0.324 | 0.364 | 0.419 | 0.342 | 0.837 | 0.363 | 0.395 | 0.37 | 0.389 | 0.448 | 0.412 | 0.742 | 0.548 | 0.299
26 | GREAEYSDKHG [EPHB4_Y574] | 0.64 | 0.392 | 0.44 | 0.388 | 0.547 | 0.472 | 0.821 | 0.773 | 0.354 | 0.582 | 0.39 | 0.571 | 0.405 | 0.809 | 0.618 | 0.402
27 | GRPMDYHVSIT [OTOF_Y254_Q255H] | 0.732 | 0.532 | 0.453 | 0.453 | 0.577 | 0.559 | 0.923 | 0.456 | 0.479 | 0.83 | 0.414 | 0.626 | 0.4 | 0.825 | 0.698 | 0.575
28 | GRPMDYQVSIT [OTOF_Y254] | 0.812 | 0.517 | 0.624 | 0.473 | 0.51 | 0.508 | 0.775 | 0.403 | 0.417 | 0.727 | 0.416 | 0.662 | 0.449 | 0.767 | 0.656 | 0.456
29 | GRQGIYTENKR [GPR143_Y231_E235K] | 0.723 | 0.349 | 0.347 | 0.477 | 0.477 | 0.346 | 0.585 | 0.372 | 0.437 | 0.527 | 0.53 | 0.46 | 0.529 | 0.874 | 0.762 | 0.61
30 | GRRNTCFASIA [ACADM_Y352_Y352C_YF] | 0.665 | 0.383 | 0.348 | 0.377 | 0.405 | 0.424 | 0.691 | 0.401 | 0.365 | 0.711 | 0.413 | 0.556 | 0.391 | 0.842 | 0.565 | 0.529
31 | GRVYVYRLSEQ [ITGAE_Y551] | 0.858 | 0.539 | 0.471 | 0.411 | 0.661 | 0.508 | 1.04 | 0.568 | 0.462 | 0.83 | 0.4 | 0.683 | 0.725 | 1.41 | 11.3 | 1.16
32 | GSPPPYRRRKR [MBD1_Y403] | 0.665 | 0.451 | 0.625 | 0.464 | 0.601 | 0.608 | 0.605 | 0.535 | 0.537 | 0.519 | 0.593 | 0.55 | 0.638 | 0.597 | 0.41 | 0.458
33 | GVFSRYFTTFD [CLCA1_Y661_YF] | 0.954 | 0.458 | 0.512 | 0.468 | 0.631 | 0.433 | 0.959 | 0.438 | 0.661 | 1.15 | 0.393 | 0.679 | 0.481 | 0.891 | 0.789 | 0.395
